By % inhibition is commonly meant the drop in the measured response relative to a control, in per cent.

Experimental findings from patent publication US20110135636A1 (SYMPHOGEN A S, published 2011) are described below.

Assay [1] has as its target T1, recombinant human EGFR extracellular domain with 6xHis (human, UniProt P00533 25-645).
T1 construct: In-house produced; also called 6xHis EGFR ECD; soluble human EGFR ECD; not shown: 6xHis tag
Put plainly: SPR competition, competitor Ab-1. The gist of the method:
(§1)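 Competitor antibodies were loaded onto EGFR ECD captured through anti-His antibody, each in a separate flow cell. The anti-EGFR mAb was then injected straight after.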

Assay [2] deals with T1, recombinant human EGFR extracellular …. Kind of assay: SPR competition, competitor Ab-3. The gist of the method: as §1
For assay [3] the target is unchanged. Kind of assay: SPR competition, competitor Ab-5. An outline of the steps:
as §1

For assay [4] the target is unchanged. Put plainly: SPR competition, competitor 1024. The gist of the method:
as §1

Assay [5] shares this target. Put plainly: SPR competition, competitor 1208. The gist of the method:
as §1

Assay [6] has the same target. Kind of assay: SPR competition, competitor 1254. The gist of the method:
as §1

The target is the same in assay [7]. Put plainly: SPR competition, competitor 1257. An outline of the steps:
as §1

The target is the same in assay [8]. Kind of assay: SPR competition, competitor 1260. An outline of the steps: as §1
Assay [9] shares this target. Kind of assay: SPR competition, competitor 1261. An outline of the steps:
as §1

The target is the same in assay [10]. Kind of assay: SPR competition, competitor 1277. An outline of the steps: as §1
The target is the same in assay [11]. Kind of assay: SPR competition, competitor 1284. The gist of the method:
as §1

For assay [12] the target is unchanged. Put plainly: SPR competition, competitor 1320. The gist of the method: as §1
For assay [13] the target is unchanged. Put plainly: SPR competition, competitor 1344. The gist of the method: as §1
For assay [14] the target is unchanged. Kind of assay: SPR competition, competitor 1347. An outline of the steps:
as §1

For assay [15] the target is unchanged. Put plainly: SPR competition, competitor Ab-10. An outline of the steps: as §1
For assay [16] the target is unchanged. Put plainly: SPR competition, competitor Ab-11. An outline of the steps: as §1
The target is the same in assay [17]. Kind of assay: SPR competition, competitor ICR10. The gist of the method:
as §1

The target is the same in assay [18]. Put plainly: SPR competition, competitor Erbitux. The gist of the method: as §1
Assay [19] has the same target. Put plainly: SPR competition, competitor Erbitux. An outline of the steps:
as §1
The source holds these as a separate data set.

Assay [20] has the same target. Kind of assay: SPR competition, competitor Vectibix. The gist of the method: as §1
For assay [21] the target is unchanged. Kind of assay: SPR competition, competitor 1030corr. The gist of the method:
as §1

Assay [22] shares this target. Put plainly: SPR competition, competitor 992 corr. An outline of the steps: as §1
Assay [23] shares this target. Kind of assay: SPR competition, competitor Vectibix. The gist of the method:
as §1
This is another data set of the same source.

B1: antibody 1347 (antibody, human IgG1, kappa, V domains shown)
VH: QVQLKESGPGLVAPSQSLSITCTVSGFSLTGHGVNWVRQPPGKGLEWLGMIWGDGSTDYNSTLKSRLSISKDNSKSQVFLKMNSLQTDDTARYYCARGYGYLYYFDYWGQGTTLTVSS
VL: ENVLTQSPAIMSASPGEKVTMTCRASSSVSSSYLHWYQQKSGASPKLWIYSTSNLASGVPARFSGSGSGTSYSLTVNSVETEDAATYYCHQYSGFPFTFGSGTKLELKR
notes: Chimeric IgG1 kappa
For the molecule B1, the “% inhibition” value in [1] was -3%; in [2], 11%; in [3] it was -1%; in [4] it was 4%; in assay [5] it was 0%; in [6] it was 0%. Besides, the “% inhibition” value in assay [7] is 19%; in [8] it was 41%; in assay [9], -23%; in assay [10], 6%; in assay [11] it was 61%; in assay [12] it was 2%. For the same molecule, the “% inhibition” value in [13] is 38%; in assay [14], 70%; in assay [15], -1%; in [16], 86%; in assay [17], 17%; in [18] it was -4%. For the same molecule, the “% inhibition” value in assay [19] is -4%; in assay [20], -6%; in assay [21], -2%; in assay [22], 7%; in assay [23] it was -5%.

B2: antibody 1284 (antibody, human IgG1, kappa, V domains shown)
VH: QVQLQQPGAELVKPGASVKLSCKASGYTFTSDWMHWMKQRPGQGLEWIGEINPSNGRSSYNEKFKSKATLTVDKSSSTAYMQLSSLTSEDSAVYYCARIGGIYVETYWGQGTLVTVSS
VL: DIVLTQSPASLAVSLGQRATISCRASQSVSTSTYSYMHWYQQKSGQPPKLLIKYASNLESGVPARFSGSGSGTDFTLNIHPVEEEDTATYYCQHSWEIPWTFGGGTKLEIKR
notes: Chimeric IgG1 kappa
Regarding B2, the “% inhibition” value was -9% in assay [1]; 9% in [2]; -13% in [3]; 0% in assay [4]; -2% in assay [5]; -3% in assay [6]. Besides, the “% inhibition” value in assay [7] is 0%; in assay [8], 79%; in assay [9], 4%; in [10], -3%; in assay [11], 98%; in assay [12], -1%. Also, the “% inhibition” value in assay [13] is 73%; in assay [14], 62%; in [15] it was -8%; in assay [16], -15%; in [17], 86%; in assay [18], -7%. Further, the “% inhibition” value in assay [19] is -2%; in assay [20], -13%; in assay [21], -5%; in assay [22], 6%; in assay [23], -2%.

B3: antibody 1308 (antibody, human IgG1, kappa, V domains shown)
VH: EVQLQQSGAELVRPGSSVKISCKASGYAFSSYWMNWVRQRPGQGLEWIGQIYPGDGDTNYNGKFKGRATLTANKSSSTAYMQLSSLTSEDSAVYFCARRASSLYDVYPYYFDYWGQGTTLTVSS
VL: DIQMTQTTSSLSASLGDRVTISCRASQDISNYLNWYQQKPDGTVKVLIYYTSRLHSGVPSRFSGSGSGTDYSLTISNLEQEDIATYFCQQGNTLPYTFGGGTKLEIKR
notes: Chimeric IgG1 kappa
Consider B3, for which the “% inhibition” value in [1] was -5%; in [2], 11%; in [3], -4%; in assay [4] it was 3%; in assay [5] it was 1%; in assay [6], 0%. Further, the “% inhibition” value in assay [7] is 27%; in assay [8], 86%; in assay [9], -9%; in assay [10], 7%; in assay [11], 76%; in [12] it was 2%. Further, the “% inhibition” value was 67% in [13]; 65% in assay [14]; -3% in [15]; 85% in [16]; 15% in [17]; -6% in assay [18]. Further, the “% inhibition” value was -6% in assay [19]; -8% in [20]; -2% in [21]; -9% in assay [22]; -7% in assay [23].

B4: antibody 1320 (antibody, human IgG1, kappa, V domains shown)
VH: QVQLQQPGAELVKPGASMKLSCKASGYTFTNYWMHWVKQRPGQGLEWIGEINPSNGRTNYNEKFKSKATLTVDKSSSTAYMQLSSLTSEDSGVYYCAKGGNYYDYDWDYWGQGTTLTVSS
VL: DIQMTQTTSSLSASLGDRVTISCSASQDISNYLNWYQQKPDGTVKLLIYHTSTLHSGVPSRFSGSGSGTDYSLTISNLEPEDIATYYCQQYSKLPWTFGGGTKLEIKR
notes: Chimeric IgG1 kappa
Take B4: the “% inhibition” value in [1] is 3%; in assay [2], 2%; in assay [3] it was -3%; in [4], 93%; in assay [5], -3%; in [6], 3%. Further, the “% inhibition” value was 2% in assay [7]; -4% in assay [8]; 4% in assay [9]; 0% in assay [10]; 5% in assay [11]; 97% in assay [12]. The “% inhibition” value is 2% in assay [13]; 5% in [14]; -2% in [15]; -6% in [16]; -3% in assay [17]; 2% in [18]. The “% inhibition” value in [19] is 2%; in assay [20], 6%; in [21] it was 0%; in [22] it was -27%; in [23] it was 14%.
